Assay results published in patent US20260083641.

Test system: collagen

Substance | fluorescence intensity, in vitro collagenase activity assay | collagenase activity relative to COLG
N-terminally truncated recombinant collagenase G (ColG) from Clostridium histolyticum, residues Tyr119-Lys1118, with N-terminal His-tag and TEV cleavage site | where all the reaction components were included (two most right bars) significantly higher fluorescence was detected | –
commercial collagenase (C.COL) (Sigma-Aldrich) | where all the reaction components were included (two most right bars) significantly higher fluorescence was detected | the activity of C.COL was significantly higher, increase of about 30%-40%, than that of COLG
